{"source": "patent US8729012", "about": "“Controllable assembly and disassembly of nanoparticle systems via protein and DNA agents” (Brookhaven Science Associates, LLC)", "binders": {"B1": {"name": "ssDNA on gold nanoparticles (ssDNA-Au) (ssDNA)", "DNA": "TTTTTTTTTTTTTTTTAACCTAACCTTCAT", "modifications": "5'-HS-C3H6, about 50 copies per gold nanoparticle"}, "B2": {"name": "annealed 19 bp dsDNA / anti-parallel poly-T32 / 15 nt ssDNA tail (structured_DNA)", "DNA 1": "GACCACATACCGCACCATCTTTTTTTTTTTTTTTTTTTTTTTTTTTTTTTTCTGCTACGAGACTTC", "DNA 2": "TTTTTTTTTTTTTTTTTTTTTTTTTTTTTTTTGATGGTGCGGTATGTGGTC"}, "B3": {"name": "annealed DNA with tail hybridized to C-ssDNA (structured_DNA)", "DNA 1": "B2 DNA 1", "DNA 2": "B2 DNA 2", "DNA 3": "GAAGTCTCGTAGCAG"}}, "key": {"YieF": {"target": "T1, YieF (UniProt P0AGE6 P0AGE6:1-188)", "T1 sequence": "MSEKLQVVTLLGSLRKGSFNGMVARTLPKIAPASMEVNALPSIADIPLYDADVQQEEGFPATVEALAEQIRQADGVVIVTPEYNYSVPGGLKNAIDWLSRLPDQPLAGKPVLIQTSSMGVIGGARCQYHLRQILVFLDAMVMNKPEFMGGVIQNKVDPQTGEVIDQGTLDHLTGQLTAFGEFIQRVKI", "experiment": "negative control, no aggregation by DLS (2.5 uM) or UV-vis (15 uM)", "details": "tags: polyhistidine", "method": "(§1) The SP band is associated with isolated Au and assembled nanostructures. After adding increased g5p concentrations, the SP band at 525 nm of isolated ssDNA-Au was red-shifted with band broadening, indicative of either a decrease in interparticle distances or an increase of aggregate size (FIG. 7B). The higher extinction intensity observed over 10 μM g5p is due to a […] of the solution's turbidity resulting from the formation of larger aggregates. […] The sizes and morphologies of the g5p-mediated ssDNA-Au assemblies were studied using transmission electron microscopy (TEM) (FIG. 7C). […] Polyhistidine-tagged YieF protein (MW=20 KDa) was used as a negative control, for which no aggregation of particles was observed during DLS and UV-vis studies (FIGS. 8A and 8B).\n(§2) The DNA for the binding study was obtained by annealing of two ssDNA with sequences, 5'-GACCACATACCGCAC-CATC(T)$32$CTGCTACGAGACTTC-3' (SEQ ID NO. 7) and 5'-(T)$32$GATGGTGCGGTATGTGGTC-3' (SEQ ID NO. 8), respectively. The annealed DNA (1 µM) was incubated with g5p at 37° C. for 10 minutes. […] Relative intensities of the DNA bands were analyzed after ethidium bromide staining Characterization UV-Visible spectra were obtained using a PerkinElmer Lambda 35 spectrometer. DLS was measured using a Malvern Zetasizer ZS instrument that is equipped with a 633 nm laser and a backscattering detector at 173°. […]"}, "gene 5 protein (g5p) [1]": {"target": "T2, gene 5 protein (g5p) (bacteriophage M13, UniProt P69544 P69544:1-87)", "T2 sequence": "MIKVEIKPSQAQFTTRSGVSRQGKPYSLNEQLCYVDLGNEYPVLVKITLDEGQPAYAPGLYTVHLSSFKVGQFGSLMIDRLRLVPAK", "experiment": "g5p-dependent nanoparticle assembly by DLS, UV-vis, TEM; 10 mM Tris-HCl pH 7.44, 200 mM NaCl", "details": "tags: His-tag (pET-30b, expressed in E. coli BL21-DE3; gene from NEB M13); chain copies: 2 inferred (homodimer)", "method": "as §1, §2"}, "gene 5 protein (g5p) [2]": {"target": "T2, gene 5 protein (g5p)", "experiment": "EMSA; three sequential stages: anti-parallel ssDNA region shifted at 10 uM g5p, then ssDNA tail, then dsDNA over 35 uM; 1 uM DNA, 10 mM Tris-HCl pH 7.4, 200 mM NaCl", "details": "tags: His-tag (pET-30b, expressed in E. coli BL21-DE3; gene from NEB M13); chain copies: 2 inferred (homodimer); 19 bp duplex, two anti-parallel T32 single strands, 3' ssDNA tail of 15 nt", "method": "To study the distinct binding properties of g5p and its preferential DNA topology, an exemplary DNA structure with three distinct regions has been designed: a 19 base paired double-stranded DNA (dsDNA) region, followed by a 32 nucleotide anti-parallel poly-T ssDNA region, and a 3' extended ssDNA tail of 15 nucleotides. The DNA structure ([…]) was titrated with g5p (in 10 mM Tris-HCl, pH=7.4, 200 mM NaCl), and g5p binding was studied using the electrophoretic mobility shift assay. […] Since g5p has a much lower affinity to dsDNA than to ssDNA at high salt concentration, the following order of occupancy is hypothesized: binding to the anti-parallel ssDNA region with a large shift of the DNA band at 10 μM g5p, followed by binding to the ssDNA tail, and finally to dsDNA at g5p concentrations over 35 μM. Thus, g5p binds to ssDNA regions before it binds to the dsDNA region, and its binding affinity for the anti-parallel region is slightly higher than for the ssDNA tail. […] By comparing the intensity of the band in the presence of 30 μM g5p to the band under control conditions without g5p, the hybridization efficiency for C-ssDNA to the g5p-complexed ssDNA tail was determined to be approximately 82%, indicating effective DNA hybridization without significant inhibition by g5p. […]"}, "gene 5 protein (g5p) [3]": {"target": "T2, gene 5 protein (g5p)", "experiment": "EMSA; C-ssDNA added to the complex; 20 and 30 uM g5p shifts collapse to one band of higher mobility (anti-parallel region bound); tail hybridization about 82% at 30 uM g5p", "details": "tags: His-tag (pET-30b, expressed in E. coli BL21-DE3; gene from NEB M13); chain copies: 2 inferred (homodimer); 19 bp duplex, anti-parallel T32 strands, tail hybridized as 15 bp duplex", "method": "Since g5p has a much lower affinity to dsDNA than to ssDNA at high salt concentration, the following order of occupancy is hypothesized: binding to the anti-parallel ssDNA region with a large shift of the DNA band at 10 μM g5p, followed by binding to the ssDNA tail, and finally to dsDNA at g5p concentrations over 35 μM. Thus, g5p binds to ssDNA regions before it binds to the dsDNA region, and its binding affinity for the anti-parallel region is slightly higher than for the ssDNA tail. To study the effect of g5p association on forming dsDNA heteroduplexes, and confirm the proposed binding order to the ssDNA regions, an equal amount (1 μM) of C-ssDNA that can hybridize to the ssDNA tail was added. […] Smearing of the band after C-ssDNA addition at 45 μM g5p supports g5p binding to dsDNA at this concentration. […]\nThe DNA for the binding study was obtained by annealing of two ssDNA with sequences, 5'-GACCACATACCGCAC-CATC(T)$32$CTGCTACGAGACTTC-3' (SEQ ID NO. 7) and 5'-(T)$32$GATGGTGCGGTATGTGGTC-3' (SEQ ID NO. 8), respectively. […] Relative intensities of the DNA bands were analyzed after ethidium bromide staining Characterization UV-Visible spectra were obtained using a PerkinElmer Lambda 35 spectrometer. DLS was measured using a Malvern Zetasizer ZS instrument that is equipped with a 633 nm laser and a backscattering detector at 173°."}}, "data": [{"binder": "B1", "values": [{"measurement": "binding result", "setting": "YieF", "value": "no binding"}, {"measurement": "binding result", "setting": "gene 5 protein (g5p) [1]", "value": "binds"}]}, {"binder": "B2", "values": [{"measurement": "binding result", "setting": "gene 5 protein (g5p) [2]", "value": "binds"}]}, {"binder": "B3", "values": [{"measurement": "binding result", "setting": "gene 5 protein (g5p) [3]", "value": "binds"}]}]}
